Measurements taken from IntAct's records for PubMed 11675338.

Tests used:
[1] = molecular target: fog1_mouse Zfpm1 (UniProt O35615)
[2] = molecular target: fog1_mouse Zfpm1 (UniProt O35615); remark: listed apart in the source
[3] = molecular target: fog1_mouse Zfpm1 (UniProt O35615); remark: listed apart in the source

fog1_mouse Zfpm1, sequence (O35615 whole entry): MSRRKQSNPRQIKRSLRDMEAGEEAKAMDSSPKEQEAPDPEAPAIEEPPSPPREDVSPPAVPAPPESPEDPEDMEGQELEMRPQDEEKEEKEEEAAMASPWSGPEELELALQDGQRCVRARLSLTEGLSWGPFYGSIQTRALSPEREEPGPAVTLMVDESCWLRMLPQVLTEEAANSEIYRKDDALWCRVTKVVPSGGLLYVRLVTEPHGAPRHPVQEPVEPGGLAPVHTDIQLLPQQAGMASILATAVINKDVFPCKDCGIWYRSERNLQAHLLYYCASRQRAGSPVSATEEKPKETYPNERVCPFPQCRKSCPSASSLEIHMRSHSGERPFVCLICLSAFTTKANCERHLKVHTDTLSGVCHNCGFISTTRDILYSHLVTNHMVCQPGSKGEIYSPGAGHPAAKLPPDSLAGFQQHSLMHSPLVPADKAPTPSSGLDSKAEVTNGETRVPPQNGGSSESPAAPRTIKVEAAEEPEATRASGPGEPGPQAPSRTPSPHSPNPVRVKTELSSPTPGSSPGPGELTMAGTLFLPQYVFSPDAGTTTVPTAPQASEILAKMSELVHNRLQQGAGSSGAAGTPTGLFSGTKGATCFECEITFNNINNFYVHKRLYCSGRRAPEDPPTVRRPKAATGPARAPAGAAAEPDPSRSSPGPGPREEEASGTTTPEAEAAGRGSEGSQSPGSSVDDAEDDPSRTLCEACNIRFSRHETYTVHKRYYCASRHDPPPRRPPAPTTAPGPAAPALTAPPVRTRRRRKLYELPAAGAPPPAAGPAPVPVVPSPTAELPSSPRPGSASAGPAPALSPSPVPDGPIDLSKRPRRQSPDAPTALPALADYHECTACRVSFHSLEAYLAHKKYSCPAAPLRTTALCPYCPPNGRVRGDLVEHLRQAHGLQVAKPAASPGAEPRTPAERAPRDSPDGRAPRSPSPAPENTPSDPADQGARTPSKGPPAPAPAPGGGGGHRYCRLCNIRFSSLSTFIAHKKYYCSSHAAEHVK
Erythroid transcription factor (Homo sapiens), P15976 G208S, sequence (P15976 whole entry G208S): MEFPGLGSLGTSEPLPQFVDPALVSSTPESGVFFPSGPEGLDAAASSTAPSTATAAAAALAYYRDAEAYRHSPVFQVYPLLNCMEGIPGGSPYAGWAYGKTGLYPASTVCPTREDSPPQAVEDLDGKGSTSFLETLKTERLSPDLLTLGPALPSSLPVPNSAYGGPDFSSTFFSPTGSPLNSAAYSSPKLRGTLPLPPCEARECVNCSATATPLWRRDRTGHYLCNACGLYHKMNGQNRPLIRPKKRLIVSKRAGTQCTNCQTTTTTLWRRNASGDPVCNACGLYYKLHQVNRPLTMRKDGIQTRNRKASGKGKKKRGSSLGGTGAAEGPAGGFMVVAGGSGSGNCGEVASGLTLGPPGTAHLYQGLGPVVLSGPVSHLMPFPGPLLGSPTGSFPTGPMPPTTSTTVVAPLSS

Erythroid transcription factor (Homo sapiens), P15976 G208S
effect of a mutation on the interaction [1]: with no effect | effect of a mutation on the interaction [2]: increasing interaction strength | effect of a mutation on the interaction [3]: decreasing interaction strength
